Assay results published in paper PMC8998196, “A Second Gamma-Glutamylpolyamine Synthetase, GlnA2, Is Involved in Polyamine Catabolism in Streptomyces coelicolor” (International Journal of Molecular Sciences, 2022).

B1: GlnA2 (His-GlnA2) (Streptomyces coelicolor A3(2)) (protein)
chain: MDKQQEFVIRTLEERDIRFVRLWFTDVLGFLKSVAVAPAELEQAFDEGIGFDGSAIEGFARVYESDMIAKPDPSTFQVLPWRAEAPGTARMFCDILMPDGSPSFADPRYVLKRALARTSDLGFTFYTHPEIEFFLLKDKPVDGSVPTPADNSGYFDHTPQNIGMDFRRQAITMLESMGISVEFSHHEGAPGQQEIDLRYADALSTADNVMTFRLVMKQVALEQGLQATFMPKPFSEYPGSGMHTHLSLFEGDRNAFYESGAEYQLSKVGRSFIAGLLRHAAEISAVTNQWVNSYKRIWGGTERTAGAGGEAPSYICWGHNNRSALVRVPMYKPGKTGSARVEVRSIDSGANPYLTYAVLLAAGLKGIEEGYELPPGAEDDVWALSDAERRALGIEPLPQNLGEALALMERSDLVAETLGEHVFDFFLRNKRQEWEEYRSQVTAFELRKSLPVL
notes: dodecamer only modelled

Assays:
[1] = target: T1, GlnA3 (His-GlnA3) (Streptomyces coelicolor, UniProt Q9KZC7); test: phosphate release (molybdate) modified GS assay; assay type: biochemical; conditions: 50 mM substrate, 10 µg enzyme, co-substrates glutamate and ATP, 30 °C, 5 min
T1 construct: His-tagged GlnA3
T1 sequence (Q9KZC7 1-466): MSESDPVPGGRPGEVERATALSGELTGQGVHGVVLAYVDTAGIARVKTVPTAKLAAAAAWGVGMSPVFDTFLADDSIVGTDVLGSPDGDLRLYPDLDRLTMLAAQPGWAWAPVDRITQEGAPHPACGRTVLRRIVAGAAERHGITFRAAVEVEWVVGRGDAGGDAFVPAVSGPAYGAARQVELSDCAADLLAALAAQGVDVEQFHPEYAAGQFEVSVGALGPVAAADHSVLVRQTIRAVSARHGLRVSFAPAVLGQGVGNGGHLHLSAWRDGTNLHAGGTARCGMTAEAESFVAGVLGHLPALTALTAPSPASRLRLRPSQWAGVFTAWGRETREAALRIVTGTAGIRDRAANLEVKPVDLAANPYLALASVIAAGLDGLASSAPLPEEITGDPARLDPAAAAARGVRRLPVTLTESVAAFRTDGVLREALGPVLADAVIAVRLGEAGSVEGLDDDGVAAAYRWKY

[2] = substrate: NCCCCN; test: phosphate release (molybdate) modified GS assay, Michaelis-Menten fit; assay type: biochemical, Streptomyces coelicolor; conditions: co-substrates glutamate and ATP, Mg2+, 30 °C, 5 min
[3] = substrate: N[C@@H](CCC(=O)O)C(=O)O; test: as above; assay type: biochemical, Streptomyces coelicolor; conditions: polyamine and ATP as co-substrates, Mg2+, 30 °C, 5 min, L form not given
[4] = substrate: Nc1ncnc2c1ncn2[C@@H]1O[C@H](COP(=O)(O)OP(=O)(O)OP(=O)(O)O)[C@@H](O)[C@H]1O; test: as above; assay type: biochemical, Streptomyces coelicolor; conditions: polyamine and glutamate as co-substrates, Mg2+, 30 °C, 5 min

Row | Molecule | phosphate release (molybdate) modified GS assay [1] | Km [2] [µM] | Km [3] [µM] | Km [4] [µM]
1 | NCCCCNCCCN [spermidine] | GlnA3 demonstrated a significant specificity towards spermidine and spermine, compared with GlnA2 |  |  | 
2 | NCCCNCCCCNCCCN [spermine] | GlnA3 demonstrated a significant specificity towards spermidine and spermine, compared with GlnA2 |  |  | 
3 | B1 |  | 550 ± 100 | 1060 ± 200 | 130 ± 100
